Laboratory results published in publication PMC7337899, “E. coli Rep helicase and RecA recombinase unwind G4 DNA and are important for resistance to G4-stabilizing ligands” (Nucleic Acids Research, 2020).

Substrate: Nc1ncnc2c1ncn2[C@@H]1O[C@H](COP(=O)(O)OP(=O)(O)OP(=O)(O)O)[C@@H](O)[C@H]1O
Test: purified protein
Assay type: biochemical, Escherichia coli
Settings: non-parallel (TTAGGG)4-T15 G4 DNA, 100 nM protein, 1 μM to 2 mM ATP, 50 mM KCl, 3 mM MgCl2, pH 7.5, ~23 °C

B1: UvrD (Escherichia coli K-12) (protein)
chain: MDVSYLLDSLNDKQREAVAAPRSNLLVLAGAGSGKTRVLVHRIAWLMSVENCSPYSIMAVTFTNKAAAEMRHRIGQLMGTSQGGMWVGTFHGLAHRLLRAHHMDANLPQDFQILDSEDQLRLLKRLIKAMNLDEKQWPPRQAMWYINSQKDEGLRPHHIQSYGNPVEQTWQKVYQAYQEACDRAGLVDFAELLLRAHELWLNKPHILQHYRERFTNILVDEFQDTNNIQYAWIRLLAGDTGKVMIVGDDDQSIYGWRGAQVENIQRFLNDFPGAETIRLEQNYRSTSNILSAANALIENNNGRLGKKLWTDGADGEPISLYCAFNELDEARFVVNRIKTWQDNGGALAECAILYRSNAQSRVLEEALLQASMPYRIYGGMRFFERQEIKDALSYLRLIANRNDDAAFERVVNTPTRGIGDRTLDVVRQTSRDRQLTLWQACRELLQEKALAGRAASALQRFMELIDALAQETADMPLHVQTDRVIKDSGLRTMYEQEKGEKGQTRIENLEELVTATRQFSYNEEDEDLMPLQAFLSHAALEAGEGQADTWQDAVQLMTLHSAKGLEFPQVFIVGMEEGMFPSQMSLDEGGRLEEERRLAYVGVTRAMQKLTLTYAETRRLYGKEVYHRPSRFIGELPEECVEEVRLRATVSRPVSHQRMGTPMVENDSGYKLGQRVRHAKFGEGTIVNMEGSGEHSRLQVAFQGQGIKWLVAAYARLESV
notes: expressed in E. coli BL21(DE3) pLysS; Polymin P, ammonium sulfate, heparin and Sephacryl S-300 purification; no tag mentioned
Km: 42.52 ± 13.8 µM
